The substances below were run on HeLa Kyoto (assay: solubility change mitosis vs G1/S (difference of NP-40 vs SDS log2 ratios) (log2 ratio difference); higher = more soluble in mitosis).
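Note: synchronized HeLa Kyoto cells (double thymidine block for G1/S, nocodazole release for mitosis), protein amounts in NP-40 versus SDS lysates quantified by mass spectrometry, three biological replicates.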

Row | Substance | solubility change mitosis (log2)
1 | RPL15 | 0.657
2 | PRKACA | -0.0702
3 | LEO1 | -0.0441
4 | RPS14 | 0.203
5 | MRPS7 | -0.0353
6 | MRPL45 | -0.0934
7 | MRPL24 | 0.022
8 | DAP3 | -0.0659
9 | MRPL23 | 0.185
10 | NOC2L | 0.667
11 | METAP1 | 0.0188
12 | POLR2K | 0.187
13 | POLR2A | 0.228
14 | RPL24 | 0.971
15 | RPL36A | 0.902
16 | GNB2L1 | 0.272
17 | RPS6 | 0.803
18 | SNRPN | 0.368
19 | OLR1 | 0.51
20 | KPNA2 | 0.136
21 | MRPS15 | 0.176
22 | MRPL54 | 0.343
23 | TOLLIP | 0.0779
24 | ALYREF | 0.776
25 | RPL36 | 0.849

Row | Substance | solubility change mitosis (log2)
26 | PHLDA3 | 0.0241
27 | TRIM16 | -0.177
28 | MRPL51 | -0.136
29 | NCAPG | -0.0373
30 | ACACA | -0.227
31 | RPL23A | 0.826
32 | MRPS16 | -0.0244
33 | MRPS27 | -0.149
34 | INPP4A | -0.0329
35 | MRPL27 | 0.243
36 | MRPS34 | 0.0157
37 | DDA1 | 0.3
38 | TCEA1 | -0.0112
39 | GOPC | -0.0477
40 | KIAA0907 | 0.046
41 | RPL6 | 0.908
42 | RPL31 | 0.763
43 | RPS3 | 0.437
44 | MRPL48 | -0.0228
45 | NEGR1 | -0.204
46 | RPL27A | 1.02
47 | MIB1 | 0.06
48 | RBX1 | -0.338
49 | RPL38 | 0.638

From the supplement of paper PMC5998384
